Experimental findings from a protein production outcome set (Wang et al. 2014) are described below.

This data set in a line: label from the status in PepcDB records.
For “MVEIIIPVGPNDKLEWVKRSVNSALLQSVDKVIIYDNSERADIYNFFQELKDKLVYIKDKRMTKVNMARLRNKMLSLASDKYVIMLDSDVVIPKNYSNNIINKLERGVAYTWIHYAYSEEEIEKPLSISENNPNLGCAGLNLEVIKRIGYFDERYERDEDVWLYAKLKKTGYKVEPAEGRCLHLNKVHARLNLSSSVAEARRNLWRSKYDIMLMFDGLTDFTFLTGYSYYGSYYILAILSVIFHPLTFLYLPLIGYGVYYYKGPKKYLLNLIPGLSLAISFPYGLGYNLIQKLK”, the protein production result is on record as “failed”.

Regarding “MVELEKEKIVWIAIILLIIFLVWETLKDLIAPIVFGMAASYIAYPFHIKLSKKVGKRNSVLILSGILSIFSLIFFVGVTLWITDTLKNLYNYLDAFFSWLSTLNVPGFLSSLFDALATSFPEKLRSILLQYTLSLPKLALQLIVFLAVFYATLLNADFLAKEIYELLPLTNRELGEKMIEKVKDTVDAILKTWLFFSVVKGIFLALGFYLFKISNVAGSIAAGVLCIVLELLPVVGGWIMWLAGAIILLRRSMLLAIIFAIYGIITISPIPDYFLKPKFAKERAKVSSVVALVGIFGGWIAFGAVGIILGPIAIGLLLALIDAWREIGTKQPSKAHRSQDA”, the protein production result is listed as “failed”.

For “MVEQRNRGRPAVPDAVVRESIVGAAQRLLSSGGAAAMTMEGVASEAGIAKKTLYRFASGRADLIGLLVESWIAPIFPGFEADPQDAAAALERIVYDIAQAVLSREAVSLFRMLASDADLRNRFLPAYNANGIERSRRELARWLDQQASAGRLPLPIPAERVADLLLSAVIAEPLRQITLGLREPLPAWDIAPRVADAVRLIAPGRER”, the protein production result is on record as “not failed”.

With “MVFFSVVVPTYNRRPILEKCLRALEQQQISAETAIAGYEVVVVDDGSTDGTVDWLKAQASEFPHVRLFEQDHQGPARARNLGVQQAQGDTIIFIDSDLVVTPPFLQAHATGLEKGRQRLGSDRCFTYGAVINTCNFDNPTAEPFKVTDFSNAYFATGNVAIARHWLETAGLFDTAFQLYGWEDLELGVRLKNLGLKLIRCPEAVGYHWHPPFSLEQIPKLIDQESQRGRMGVLFYQKHPTWEVRLMIQMTWLHRLLWGTLSLGGFLNERTLRPLLAWLLKRDRPQLALEIARIFLNWNNVRSVYAAYRESQGLASSLEHHHHHH”, the protein production result was “not failed”.

As to “MVFVWFIVAAIVTILTAIKLSNYADTIGEKSTLGGMLVGTIFLAGATSLPEITTTVSAIVLNNPDLAVGNVLGSNMFNLLILATLDLYFRRAQLFRGADTSHFFTASIGLLLAMVTLIAITLRLDVTLLGIGIDMLVLIVVYAFGMKLLSAVRNDPVPESQTIDQEDNRPVKKDVSLRHAMIGFAISAIVIMGAGTLLTVTGDEIAVVTGLGSSFVGSFLIAATTSLPEGVSVFVALRLKNINLALGSVLGSNLFNFLILGVSDILYRPGSIIAAISPVHQLTAAAVGILCLMTLYALLRPAEQSKRMYLMPSLVLIVFYFFSSYLIFVQ”, the protein production entry is on record as “failed”.

Consider “MVGADLLCGSAWVPALWLNLCNLGVVVTLWQLLSRLPRMHRRMRSPHGVLSVFAACAAAAMVAASMAAVMAAPWFEQSLRATWLAWFSEQFSTGVLVLPVLLTAPSVRALVRGGAQPIRLAPLLVLLASLAFSIAFGGPGAIAFPIAALLWCAWTYSPFLVSLLTLTAGSTLIVAVAQNLMHFSVPQSEPGVTTLMSARLGIAMLVLGPLVVACVSQANRSLMARLAHQATVDHLTGVLTRSAFTRRANALLESRQQHAQALPLTLMMLDIDHFKSINDAHGHAVGDQVLRQFASTLQDQLHNDELIARLGGEEFVVILPGLAPERANFTAERLRRAIQDLHVTQADQRLQITVSIGVAGCDADMPAPSLDELLASADQALYRAKARGRNRVEQAEAQRLVI”, for which the protein production result is on record as “failed”.

“MVGGGSKHVGEGSKPRATKDDAYAYLRAVRAKFHNDSKKYDDFVAVMTNFKARRIDRDGCIKEVEQLLKGHRDLISGFNAFLPKCLEIKNYYFGAGEDLEVVYTAKRKLLARSVTKRSSSSSSSSSVYFLFRSCEII”: the protein production entry was “failed”.

Turning to “MVGGGTVKKDLKKAIQYYVKACELNEMFGCLSLVSNSQINKQKLFQYLSKACELNSGNGCRFLGDFYENGKYVKKDLRKAAQYYSKACGLNDQDGCLILGYKQYAGKGVVKNEKQAVKTFEKACRLGSEDACGILNNY”, the protein production entry is recorded as “failed”.

Regarding “MVGNKVKSFMLPIISYAVPTFVLVYPSFFVSWLSESMHLAYWEVFAIVALPFLGRIIGSFIYQVFKNSVISYCFPFLGFLVILQNFLGALIFVRFLVGVIFGLLTSYAVESAVKSGRNVLVGFTTAGWPIGWVISYVAYVLLKNWNVINISGILIMLLALFELNGKEFGERSKISVSFPRLTSILIYVSALTPAFILQVMPSFLEVIKLTWLILPSYLLSIPTYVLLPIISEKVGIRKVLVISSIIVILSCVITFLLLPMMVIVFTSIGLGILGITPKYLAIRGEDPKRMGLALNIGSVMGLILPVVYGLMPFSSEFLLSILMVLMILI”, the protein production entry is reported as “failed”.

Turning to “MVHASVDIEVQFAIAVVKTLILVLGGIVTYLAYSAYQRTGDETLFQLSVGLALVGVGVLLGGFTFELLDVSLGVGVLIESLFVLAGLSVIAYSLKK”, the protein production entry is listed as “failed”.

In the case of “MVKAYQRYDAATSFGVISSVDSNIAYDSTGKYVLAPALEKVGIWHVRQGVCSKTLTPSSSRGGPSLAVTSIASSASSLVAVGYADGSIRIWDTEKGTCEVNFNSHKGAVTALRYNKVGSMLASGSKDNDIILWDVVGESGLFRLRGHRDQVTDLVFLDGGKKLVSSSKDKFLRVWDLETQHCMQIVSGHHSEVWSVDTDPEERYVVTGSADQELRFYAVKEYSSNGSLVSDSNANEIKASEEHSTENKWEILKLFGEIQRQTKDRVARVRFNVSGKLLACQMAGKTIEIFRVLDEAEAKQKAKRRLRRKEKKSSKVGDENSTANGEASAKIELADAVSSPTVLDVFKLLQVIRAGRKISSFSFCPTAPKESLGTLALSLNNNSLEFYSLKSSENAKTVTIEHQGHRSDVRSVTLSEDNTLLMSTSHSEVKIWNPSTGSCLRTIDSGYGLCSLIVPQNKYGIVGTKSGVLEIIDIGSATKVEEVKAHGGTIWSITPIPNDSGFVTVSADHEVKFWEYQVKQKSGKATKKLTVSNVKSMKMNDDVLAVAISPDAKHIAVALLDSTVKVFYMDSLKFYLSLYGHKLPVMCIDISSDGELIVTGSQDKNLKIWGLDFGDCHKSIFAHGDSVMGVKFVRNTHYLFSIGKDRLVKYWDADKFEHLLTLEGHHAEIWCLAISNRGDFLVTGSHDRSMRRWDRSEEPFFLEEEKEKRLEELFESEIDNAADDRHGPMEEIPEEGVAALAGKKTIDVLSAADSIIDALEVAEDETKRHAAYEEEKTKGKVPEYLPNAVMFGLSPSEYVLRAISNVRTNDLEQTLLALPFSDSLKFLCYMKDWSLIPEKVELVSRIATIILQTHHNQLVTTPSARPILSVLRDILYSEIKACKDTIGFNLAAMDHVKQMMDARSDAPFKDAKAKLLEIRSQQAKRMASRGDTKMEKKRKKKQKKLEEGQHGHALF”, the protein production result was “failed”.

Regarding “MVKCLSAHNKAPHVSVITPSYNSIRFIGETIVSVQNQSYENWEMIIVDDASTDESVTKIKEIIEGDSRIRLVSLKENIGAAKARNIAIQEARGRYIAFLDSDDIWLPHKLKTQLLFMEEMSVAFSYASYSLIDENGNGLNREVNVPKSVDYHCLAGNTIIGCLTVIIDREKIPHIEMPSVQPEDTALWLKLLHEGHEAKGIQQVLAKYRIVANSVSRNKIKAAFRYWKLLRDQKCLNAVQIFYYFSKYAYHAYRKNKINVVGKTQL”, the protein production entry is listed as “failed”.

On to “MVKESGMASLLLENPYYGYRKPKDQLRSSLKNVSDLFVMGGALILESAALLHWLERDGFWPLGMTGISMGGHMASLAVTNWPKPIPLIPCLSWTTASSVFTTGVLSRAVNWRELEKQYATHTVYEEEIISMLEYCGTDSFRMGQEFVKNAPGSFDGLDLTQELLQSGQQVALRSSYSGRPASDQDSSVLMGRRERDGLDQMLSAVSSSAPHLDMLHAKSIACGSGQRQSLQRESLCFMKGVMDECTHIANFSVPVDPSLIIIVQAKEDAYVPRTGVRSLQEIWPGCEVRYLNGGHISAYLFKQGLFRQAIYDAYDRFLHKYSSL”, for which the protein production result is “not failed”.

In the case of “MVKIEVAKPINFNRLITSKEAEVVSMRILNQPNSYISLFSLAKDEEITAEAMLGNRYYYCFNGNGEIFIENNKKTISNGDFLEITANHNYSIEARDNLKLIEIGEKIGDGNMENKTLKMLESASAFNLAEVVEYQEGKIVSKNLVAKPNLVMTIMSFWKGESLDPHKAPGDALVTVLDGEGKYYVDGKPFIVKKGESAVLPANIPHAVEAETENFKMLLILVKE”, the protein production entry was “not failed”.

As for “MVKKFKRVLVANRGEIAIRIFRACHELGIRTVAIYSEEDKLALFRTKADESYLIGQNKGPVDAYLNIDEIINLALKKGVDAIHPGYGFLSENSEFSRRCTEAGIEFIGPTGDMMDKLGDKINSKLAAKAAGVKTIPGVEKPIETEQQAIEFARTCGYPVMVKAAAGGGGRGMRIVEKEEDLIAACRSAKSEAKKAFGIEDIFIEKYLEGPKHIEVQVLGDKYGNIVHLYERDCSVQRRHQKVIELTPAVSMSEEKRLEICEDALKIARSIGYRSAGTLEFLLDKHGNHYFIEMNPRVQVEHTITEMVTGIDIVQSQILIAEGYKLNSPEVGINSQEDIHVNGYAIQCRITTEDPSNSFAPDTGKIDVYRTGSGFGIRLDGGNGFTGAVISPYYDSLLVKSTSWSRTFEDAIRKAIRAIKETYISGVKTNIDFLINVLNHETFRKGLCDTNFIANNPELFEITPRIDTELRVLKFIGEKVVNETHGHKIEVDVPSVPKYEIKEPLRGTKQILDEKGPKGLVEWIKDQDKLLLTDTTMRDAHQSLMATRLRTVDMVKIAKAESVLAKDLFSMEMWGGATFDTAYRFLKESPWERLERLRKRVPNVLFQMLLRGANAVGYKNYPDNVIREFIKQSSKSGIDVFRIFDSLNWVKGMEVAIDEVLNQGKVAEACMCYTGDILDTNRDKYTLNYYVNLAKEIEKSGAHILGIKDMSALLKPYAALKLIRALKNEISIPIHLHTHDTTGNGVATVLMAAHAGVDIADTAFNSMSGLTSQPALNSVVAALKNTDRDTKMDIGDLQKISDYWSTVRPVYSKFESGLKAVSAEIYKYEIPGGQYSNLKPQVESFGLGHRFEQVKEMYREVNIMLGDIVKVTPSSKMVGDLAIFMVQNELTSENILEKAKDMPFPDSVVSYFKGMMGQPKGGFPKELQKIVLKDEEAITCRPGELLPDEDFDKIRVRLKKENKIEPTDKDVISYALYPDVFEEYLKYKNEYGDLSRMGSDVFFHGLAEGEISELEIAEGKTLVVQLLHIGKLDKQGNRTLVFEVNGNRREIKIKDKVSSTKSEIVEEIVIADSSNKKEIGASIPGNVVKVFVKPGDKVKKGDSLMVIEAMKMETNVSVSEDGTVGGIFVKEGDQVQSGQLLVKLD”, the protein production result was “failed”.

With “MVKKGFLTGLLLFGIFFGAGNLIFPPALGVASGQDFWPAILGFCLSGVGLAIITLLLGTLTNGGYKTEMSEKFSPWFSLTFLVILYLTIGPLFAIPRTATVSFEIGVAPIVGHSPIALLCFTACFFAAAYYLAIRPNGILDSVGKILTPVFAFLILSLVVVGAIAYGNLESAKASADYAGKAFGSGVLAGYNTLDALAAVAFCLVATETLKKFGFKTKKEYLSTIWIVGIVTSLAFSILYIGLGFLGNKFPVPADILADPNVNKGAYVLSQASYKLFGNFGRYFLSIMVTLTCFTTTVGLIVSVSEFFDKNFRFGNYKLFATVFTLIGFLIANLGLNAVITFSVPVLTLLYPIVIVIVLIILINKWLPLSKKGMSLTIGLVTLVSFVEVLAGQWQEKTLTQLVGFLPFHTISMGWLVPMLIGIVFSLVLSDKQKGQAFDLEKFEG”, the protein production result is on record as “failed”.

As for “MVKKIGLSIMLLFFFLIIALPIYAWKIEPNLVHVNQVTLGKKNQREPLNVVQLSDIQVSEFYETKRLDKVIKKVNREKPDIIVFTGDLFDNYAKNPQQKEPMIEKLKQLQATIGKYAVWGNHDYGGGASAVYDEVMEASGFTVMKNQGETVTLADGRRLFIGGLDDSLLGNPSVSETLSYRETYDYALLMTHEPDVADAFVGTGTQLVLAGHSHGGQIWIPFYPITNVLAEKYTRGLYQLDQETQLYVNTGLGTTAIHARFGVIPEITHFTIYI”, the protein production result is on record as “failed”.
